# Laboratory results published in US20260109745A1 (published 2026).
# Ends that are not written are not given here.
# B1: synthetic peptide 4-1-3-C11 (control peptide) (peptide)
# peptide: YSHSVHAIEDNWSPRGGGGS
# modifications: also: biotinylated (NHS kit) in direct ELISA, unlabelled in competition assays
# notes: Negative control peptide
# Molecular target: T1, NEO-101 antibody (chimeric NPC-1 antibody)
# T1 construct: Chimeric (murine variable, human constant regions); Used unlabelled, biotinylated, FITC-labelled or coupled to Dynal beads depending on the assay; also called NPC-1C; NPC-1-C
# Assay: ELISA: peptide-biotin on NEO-101 coated plate
# Procedure: To solve the poor binding of peptides to 96 well plate, peptides were biotinylated using EZ-link micro NHS Biotinylation kit (Pierce Cat #21955), and labeling efficiency checked by dot blot (50%). […] The solution was blocked with 200 μl of 1% milk in TBS at RT for 20 min. Aliquots of 100 μl peptide-biotin (1 μg/ml) in 0.1% milk-TBS were added, and incubated at RT of 2 hr, followed by three washes with TBST. Streptavidin-HRP (100 μl of 1:2000 diluted in 1:10 diluted blocking buffer) was added, and the wells incubated at RT for 1 hr, followed by three washed. TMB was then added, and the wells were read at 450 nm. Positive controls for NPC-1C binding used 4B6-biotin. The results are shown in FIG. 11, which indicates biotinylated peptides bind to NPC-1C coated plate.
# T1 sequence (VH, as listed by the source limits assumed, chain 1 of 2): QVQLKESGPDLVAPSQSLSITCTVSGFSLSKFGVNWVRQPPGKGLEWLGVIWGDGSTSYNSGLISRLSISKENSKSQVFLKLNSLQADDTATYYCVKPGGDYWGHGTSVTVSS
# T1 sequence (VL, as listed by the source limits assumed, chain 2 of 2): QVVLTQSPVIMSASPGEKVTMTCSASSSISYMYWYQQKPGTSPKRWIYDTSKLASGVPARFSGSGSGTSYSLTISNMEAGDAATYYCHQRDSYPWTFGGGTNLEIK
binder,measurement,value
B1,binding result,no binding (tested: 1 ug/ml)
